From US5945513 come the findings set out here.

This experiment deals with soluble recombinant human gp39 (CD8-gp39 fusion protein) (murine; human).

For the substance “CD40-Ig (modified by L234F, L235E and G237A in the immunoglobulin domain) (from UniProt P25942) (Fc fusion)”, the inhibition of shgp39/IF5 or shgp39/PMA driven tonsillar B cell proliferation turned out to be 50 % inhibition.
